Patent US20230035659A1, “Compositions and Methods for TTR Gene Editing and Treating ATTR Amyloidosis Comprising a Corticosteroid or Use Thereof” (Intellia Therapeutics, Inc., priority 2019, published 2023)
Strand notation (5' to 3'): a small letter for the sugar, then the base; units joined by * are phosphorothioate-linked, units joined directly phosphodiester-linked; [ ] holds rarer units or linkages, { } end groups; capitals alone tell only the bases. m = 2'-O-methyl; r = 2'-OH (RNA)

Experiments:
TTR mRNA = TTR mRNA knockdown (quantitative PCR) in primary human hepatocytes treated with LNPs; assay type: cell-based; details: PHH, gRNA:mRNA 1:2, 96 h, vs untreated control
Description: In one experiment, PHH were cultured and treated with LNPs comprising Cas9 mRNA (SEQ ID NO:1) and a gRNA of interest (See FIG. 29, Table 36), as described in Example 4. The LNPs were prepared using the cross-flow procedure described above and purified and concentrated using PD-10 columns and Amicon centrifugal filter units, respectively. The LNPs were formulated with an N:P ratio of 6.0 and contained Lipid A, Cholesterol, DSPC, and PEG2k-DMG in a 50:38:9:2 molar ratio, respectively. The LNPs comprised a gRNA:mRNA ratio of 1:2, and the cells were treated at a dose of 300 ng (with respect to the amount of mRNA cargo delivered).
(§1) Ninety-six (96) hours following LNP treatment (with biological triplicates for each condition), mRNA was purified from PHH cells using the Dynabeads mRNA DIRECT Kit (ThermoFisher Scientific) according to the manufacturer's protocol. Reverse Transcription (RT) was performed with Maxima reverse transcriptase (ThermoFisher Scientific) and a poly-dT primer. The resulting cDNA was purified with Ampure XP Beads (Agencourt). For Quantitative PCR, 2% of the purified cDNA was amplified with Taqman Fast Advanced Mastermix and 3 Taqman probe sets, TTR (Assay ID: Hs00174914_m1), GAPDH (Assay ID: Hs02786624_g1), and PPIB (Assay ID: Hs00168719_m1). The assays were run on the QuantStudio 7 Flex Real Time PCR System according to the manufacturer's instructions (Life Technologies). Relative expression of TTR mRNA was calculated by normalizing to the endogenous controls (GAPDH and PPIB) individually, and then averaged.
The groups in FIG. 29 and Table 36 are identified by the gRNA ID used in each LNP preparation.
In a separate experiment, TTR mRNA knockdown was evaluated following treatment with LNPs comprising G000480, G000486, and G000502. The LNPs were formulated and PHH were cultured and treated with the LNPs, each as described in the experiment above in this Example with the exception that the cells were treated at a dose of 100 ng (with respect to the amount of mRNA cargo delivered).
as §1, with “(single treatment” for “(with biological triplicates”, “the High Capacity cDNA Reverse Transcription Kit” for “Maxima reverse transcriptase”, “according to the manufacturer's instructions.” for “and a poly-dT primer. The resulting cDNA was purified with Ampure XP Beads (Agencourt).”, “the” for “the purified”
The groups in FIG. 30 and Table 37 are identified by the gRNA ID used in each LNP preparation.

TTR = TTR editing dose response (EC50, maximum editing) in primary cyno hepatocytes treated with LNP formulated U-depleted Spy Cas9 mRNA and sgRNAs; assay type: cell-based, cynomolgus monkey
Description: Primary liver hepatocytes. Primary human liver hepatocytes (PHH) and primary cynomolgus liver hepatocytes (PCH) (Gibco) were cultured per the manufacturer's protocol (Invitrogen, protocol 11.28.2012). In brief, the cells were thawed and resuspended in hepatocyte thawing medium with supplements (Gibco, Cat. CM7000) followed by centrifugation at 100 g for 10 minutes for human and 80 g for 4 minutes for cyno. The supernatant was discarded and the pelleted cells resuspended in hepatocyte plating medium plus supplement pack (Invitrogen, Cat. A1217601 and CM3000). Cells were counted and plated on Bio-coat collagen I coated 96-well plates (ThermoFisher, Cat. 877272) at a density of 33,000 cells/well for human or 60,000 cells/well for cyno (or 65,000 cells/well when assaying effects on TTR protein, described further below). Plated cells were allowed to settle and adhere for 6 or 24 hours in a tissue culture incubator at 37° C. and 5% CO2 atmosphere. After incubation cells were checked for monolayer formation and media was replaced with hepatocyte culture medium with serum-free supplement pack (Invitrogen, Cat. A1217601 and CM4000).
For LNPs prepared using the cross-flow technique, the LNPs were formed by impinging jet mixing of the lipid in ethanol with two volumes of RNA solutions and one volume of water. The lipid in ethanol is mixed through a mixing cross with the two volumes of RNA solution. A fourth stream of water is mixed with the outlet stream of the cross through an inline tee. (See WO2016010840 FIG. 2.) The LNPs were held for 1 hour at room temperature, and further diluted with water (approximately 1:1 v/v). Diluted LNPs were concentrated using tangential flow filtration on a flat sheet cartridge (Sartorius, 100 kD MWCO) and then buffer exchanged by diafiltration into 50 mM Tris, 45 mM NaCl, 5% (w/v) sucrose, pH 7.5 (TSS). Alternatively, the final buffer exchange into TSS was completed with PD-10 desalting columns (GE). If required, formulations were concentrated by centrifugation with Amicon 100 kDa centrifugal filters (Millipore). The resulting mixture was then filtered using a 0.2 μm sterile filter. The final LNP was stored at 4° C. or −80° C. until further use.
Additional PCR was performed per the manufacturer's protocols (Illumina) to add chemistry for sequencing. The amplicons were sequenced on an Illumina MiSeq instrument. The reads were aligned to a reference genome (e.g., the human reference genome (hg38), the cynomologus reference genome (mf5), the rat reference genome (rn6), or the mouse reference genome (mm10)) after eliminating those having low quality scores. The resulting files containing the reads were mapped to the reference genome (BAM files), where reads that overlapped the target region of interest were selected and the number of wild type reads versus the number of reads which contain an insertion, substitution, or deletion was calculated.
The editing percentage (e.g., the “editing efficiency” or “percent editing” or “indel frequency”) is defined as the total number of sequence reads with insertions/deletions (“indels”) or substitutions over the total number of sequence reads, including wild type.
Lipid nanoparticle formulations of modified sgRNAs targeting human TTR and the cyno matched sgRNA sequences were tested on primary human hepatocytes and primary cyno hepatocytes in a dose response curve. Primary human and cyno hepatocytes were plated as described in Example 1. Both cell lines were incubated at 37° C., 5% CO2 for 24 hours prior to treatment with LNPs. The LNPs used in the experiments detailed in Tables 20-22 were prepared using the cross-flow procedure described above but purified using PD-10 columns (GE Healthcare Life Sciences) and concentrated using Amicon centrifugal filter units (Millipore Sigma), each containing the specified sgRNA and Cas9 mRNA (SEQ ID NO:1). […] LNPs were incubated in hepatocyte maintenance media containing 6% cyno serum at 37° C., 5% CO2 for 5 minutes. […]

[1] = LNP dose 100 ng mRNA cargo, single treatment
[2] = LNP dose 300 ng mRNA cargo, biological triplicates
[3] = LNP formulated U-depleted Spy Cas9 mRNA and human specific sgRNAs

Row | Molecule | Avg % Knockdown (TTR mRNA) (TTR mRNA; [1]) [%] | Max Editing (TTR; LNP formulated U-depleted Spy Cas9 mRNA and cyno specific sgRNAs) [%] | Avg % Knockdown (TTR mRNA) (TTR mRNA; [2]) [%] | Max Editing (TTR; [3]) [%]
1 | G000502: TTR Cyno specific sgRNA modified sequence, SEQ ID NO: 114; guide sequence of CR000689; cross homologous between mouse and cyno (nucleic acid) guide: mA*mC*mA*rCrArArArUrArCrCrArGrUrCrCrArGrCrGrGrUrUrUrUrArGrAmGmCmUmAmGmAmAmAmUmAmGmCrArArGrUrUrArArArArUrArArGrGrCrUrArGrUrCrCrGrUrUrArUrCrAmAmCmUmUmGmAmAmAmAmAmGmUmGmGmCmAmCmCmGmAmGmUmCmGmGmUmGmCmU*mU*mU*mU | 90.94 | 100.05 | – | –
2 | G000570: TTR sgRNA modified sequence, Human, SEQ ID NO: 111; guide sequence of CR003347 (nucleic acid) guide: mC*mA*mU*rUrGrArUrGrGrCrArGrGrArCrUrGrCrCrUrGrUrUrUrUrArGrAmGmCmUmAmGmAmAmAmUmAmGmCrArArGrUrUrArArArArUrArArGrGrCrUrArGrUrCrCrGrUrUrArUrCrAmAmCmUmUmGmAmAmAmAmAmGmUmGmGmCmAmCmCmGmAmGmUmCmGmGmUmGmCmU*mU*mU*mU | – | – | 93.38 | 96.73
3 | G000494: TTR sgRNA modified sequence, Human, SEQ ID NO: 101; guide sequence of CR003360 (nucleic acid) guide: mG*mU*mG*rArGrUrCrUrGrGrArGrArGrCrUrGrCrArUrGrUrUrUrUrArGrAmGmCmUmAmGmAmAmAmUmAmGmCrArArGrUrUrArArArArUrArArGrGrCrUrArGrUrCrCrGrUrUrArUrCrAmAmCmUmUmGmAmAmAmAmAmGmUmGmGmCmAmCmCmGmAmGmUmCmGmGmUmGmCmU*mU*mU*mU | – | – | 91.15 | 60.84
4 | G000499: TTR sgRNA modified sequence, Human, SEQ ID NO: 106; guide sequence of CR005303 (nucleic acid) guide: mU*mG*mA*rArUrCrCrArArGrUrGrUrCrCrUrCrUrGrArGrUrUrUrUrArGrAmGmCmUmAmGmAmAmAmUmAmGmCrArArGrUrUrArArArArUrArArGrGrCrUrArGrUrCrCrGrUrUrArUrCrAmAmCmUmUmGmAmAmAmAmAmGmUmGmGmCmAmCmCmGmAmGmUmCmGmGmUmGmCmU*mU*mU*mU | – | – | 91.38 | 74.94
5 | G000480: TTR sgRNA modified sequence, Human, SEQ ID NO: 87; guide sequence of CR003353 (nucleic acid) guide: mA*mA*mA*rGrGrCrUrGrCrUrGrArUrGrArCrArCrCrUrGrUrUrUrUrArGrAmGmCmUmAmGmAmAmAmUmAmGmCrArArGrUrUrArArArArUrArArGrGrCrUrArGrUrCrCrGrUrUrArUrCrAmAmCmUmUmGmAmAmAmAmAmGmUmGmGmCmAmCmCmGmAmGmUmCmGmGmUmGmCmU*mU*mU*mU | 95.61 | – | 95.19 | 20.32
6 | G000486: TTR sgRNA modified sequence, Human, SEQ ID NO: 93; guide sequence of CR003339 (nucleic acid) guide: mA*mC*mA*rCrArArArUrArCrCrArGrUrCrCrArGrCrArGrUrUrUrUrArGrAmGmCmUmAmGmAmAmAmUmAmGmCrArArGrUrUrArArArArUrArArGrGrCrUrArGrUrCrCrGrUrUrArUrCrAmAmCmUmUmGmAmAmAmAmAmGmUmGmGmCmAmCmCmGmAmGmUmCmGmGmUmGmCmU*mU*mU*mU | 97.36 | – | – | –
7 | G000482: TTR sgRNA modified sequence, Human, SEQ ID NO: 89; guide sequence of CR003365 (nucleic acid) guide: mU*mG*mU*rArGrArArGrGrGrArUrArUrArCrArArArGrGrUrUrUrUrArGrAmGmCmUmAmGmAmAmAmUmAmGmCrArArGrUrUrArArArArUrArArGrGrCrUrArGrUrCrCrGrUrUrArUrCrAmAmCmUmUmGmAmAmAmAmAmGmUmGmGmCmAmCmCmGmAmGmUmCmGmGmUmGmCmU*mU*mU*mU | – | – | 82.31 | 97.47
8 | G000483: TTR sgRNA modified sequence, Human, SEQ ID NO: 90; guide sequence of CR005298 (nucleic acid) guide: mU*mC*mC*rArCrUrCrArUrUrCrUrUrGrGrCrArGrGrArGrUrUrUrUrArGrAmGmCmUmAmGmAmAmAmUmAmGmCrArArGrUrUrArArArArUrArArGrGrCrUrArGrUrCrCrGrUrUrArUrCrAmAmCmUmUmGmAmAmAmAmAmGmUmGmGmCmAmCmCmGmAmGmUmCmGmGmUmGmCmU*mU*mU*mU | – | – | 68.78 | 56.52
9 | G000484: TTR sgRNA modified sequence, Human, SEQ ID NO: 91; guide sequence of CR003367 (nucleic acid) guide: mA*mG*mA*rCrArCrCrArArArUrCrUrUrArCrUrGrGrArGrUrUrUrUrArGrAmGmCmUmAmGmAmAmAmUmAmGmCrArArGrUrUrArArArArUrArArGrGrCrUrArGrUrCrCrGrUrUrArUrCrAmAmCmUmUmGmAmAmAmAmAmGmUmGmGmCmAmCmCmGmAmGmUmCmGmGmUmGmCmU*mU*mU*mU | – | – | 75.22 | 0.22
10 | G000488: TTR sgRNA modified sequence, Human, SEQ ID NO: 95; guide sequence of CR003346 (nucleic acid) guide: mA*mA*mA*rGrUrUrCrUrArGrArUrGrCrUrGrUrCrCrGrGrUrUrUrUrArGrAmGmCmUmAmGmAmAmAmUmAmGmCrArArGrUrUrArArArArUrArArGrGrCrUrArGrUrCrCrGrUrUrArUrCrAmAmCmUmUmGmAmAmAmAmAmGmUmGmGmCmAmCmCmGmAmGmUmCmGmGmUmGmCmU*mU*mU*mU | – | – | 92.77 | 21.63
11 | G000489: TTR sgRNA modified sequence, Human, SEQ ID NO: 96; guide sequence of CR003344 (nucleic acid) guide: mU*mU*mU*rGrArCrCrArUrCrArGrArGrGrArCrArCrUrGrUrUrUrUrArGrAmGmCmUmAmGmAmAmAmUmAmGmCrArArGrUrUrArArArArUrArArGrGrCrUrArGrUrCrCrGrUrUrArUrCrAmAmCmUmUmGmAmAmAmAmAmGmUmGmGmCmAmCmCmGmAmGmUmCmGmGmUmGmCmU*mU*mU*mU | – | – | 91.85 | 89.21
